Data published in patent US20120208753A1 (published 2012).

Molecular target: the molecule itself
Assay: non-reducing PAGE of protein isolated from CHO cells

B1: active domain of GDF-6 fused to a FLAG tag (SEQ ID NO: 25) (ligand)
chain: MDYKDDDDKENLYFQGTAFASRHGKRHGKKSRLRCSKKPLHVNFKELGWDDWIIAPLEYEAYHCEGVCDFPLRSHLEPTNHAIIQTLMNSMDPGSTPPSCCVPTKLTPISILYIDAGNNVVYKQYEDMVVESCGCR
notes: It was secreted by CHO cells; the Western blot was run under reducing conditions; also called active fragment of GDF-6; active fragment
  binding result: binds
